Reference: paper doi:10.1101/2024.12.18.629124

Columns and labels:
Test in all cases: SPR
[1] = target: GST-Staufen FL (Drosophila melanogaster) (UniProt P25159)
[2] = target: Tm1 FL (Drosophila melanogaster)
[3] = target: Tm1 1-335 (Drosophila melanogaster)
[4] = target: Staufen dsRBD3-4-L4 (aa 578-951) (Drosophila melanogaster) (UniProt P25159)

Row | Substance | Kd [1] [nM] | Kd [4] [nM] | also measured
1 | Staufen dsRBD3-4-5-C-term (domain or fragment) | – | – | Kd [2]: 152 nM
2 | Staufen dsRBD3-4-L4 (aa 578-951) (from UniProt P25159 578-951) (domain or fragment) | – | – | Kd [3]: 224 nM
3 | Tm1 1-213 (domain or fragment) | – | 495 | –
4 | Tm1 1-335 (domain or fragment) | 386 | 262 | –

The next lines start with results.

Row | Kd [1] [nM] | Kd [4] [nM] | Substance | also measured
5 | 13 | – | Khc-Tm1 complex (from UniProt P17210 1-975) | –
6 | – | 1420 | Tm1 1-213 L93Y (domain or fragment) | –
7 | 86.6 | – | Tm1 FL (natural protein) | –
